The values that follow come from paper doi:10.1101/2024.02.19.580884 (bioRxiv, 2024).

Test in all cases: pull-down
Assay [1] has as its target T1, 6xHis-AccC (Bacillus subtilis 168, UniProt P49787 1-450).
T1 sequence (looked up): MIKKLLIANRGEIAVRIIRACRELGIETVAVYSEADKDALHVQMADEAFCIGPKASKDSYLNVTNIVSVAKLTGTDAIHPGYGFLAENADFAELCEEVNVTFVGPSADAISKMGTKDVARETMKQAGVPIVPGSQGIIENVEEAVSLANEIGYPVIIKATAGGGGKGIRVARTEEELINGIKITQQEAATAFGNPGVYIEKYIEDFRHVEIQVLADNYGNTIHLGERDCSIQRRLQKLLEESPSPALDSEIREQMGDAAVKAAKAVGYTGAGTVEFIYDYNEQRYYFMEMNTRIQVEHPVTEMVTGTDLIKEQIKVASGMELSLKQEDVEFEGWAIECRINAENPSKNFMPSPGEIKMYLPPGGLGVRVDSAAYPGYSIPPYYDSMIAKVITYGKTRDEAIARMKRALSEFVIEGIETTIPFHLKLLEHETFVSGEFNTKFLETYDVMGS

Assay [2] has as its target T2, Strep-tagged AccB (Bacillus subtilis 168, UniProt P49786 1-159).
T2 sequence (looked up): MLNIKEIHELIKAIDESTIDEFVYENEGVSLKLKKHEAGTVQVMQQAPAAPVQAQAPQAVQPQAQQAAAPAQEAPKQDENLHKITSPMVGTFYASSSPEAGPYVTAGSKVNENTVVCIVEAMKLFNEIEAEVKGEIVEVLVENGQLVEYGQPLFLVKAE

For assay [3], the target named is T3, Strep-tagged AccC (Bacillus subtilis 168, UniProt P49787 1-450).
T3 sequence (looked up): T1 sequence (looked up)

B1: GST-tagged RfaA (natural protein, Bacillus subtilis 168, UniProt P54519 1-135, looked up)
chain: MKDNSLLKMDHEDTHLGKVEIAPEVIEVIAGIAASEVDGVAEMRGNFATGVVERFGKVNHGKGVKVDLADDGITIDVYCVVTFGVSIPKVAASVQENIRQTLLNMTSLSINEINIHIVGIQFDTKAQEVQIDEEM
As to B1, in assay [1], the binding result is listed as “binds”.

B2: 6xHis-SUMO-RfaA (natural protein, Bacillus subtilis 168, UniProt P54519 1-135, looked up)
chain: B1 chain
For B2, the binding result in assay [2] and in assay [3] was “binds” throughout.
